{"source": "paper PMC3987903", "target": "GST-LT-Ag (HPD to AAA) mutant (JC virus (JCV)) (UniProt P03072)", "assay": "pull-down", "data": [{"substance": "human heat shock protein Hsp70 (from UniProt P0DMV8 1-641) (natural protein)", "values": [{"measurement": "reduction of the interaction against WT", "value": "> 50", "unit": "%"}]}]}
